# Reference: patent publication US11091749B2, “Deimmunized lysostaphin and methods of use” (TRUSTEES OF DARTMOUTH COLLEGE, priority 2014, dated 2021)
# How the values were obtained:
# MRSA strain USA400 [1] = assay: In vitro inhibitory activity (MIC); format: cell-based, Staphylococcus aureus
# Text: F11, P12 and F13 were screened for in vitro inhibitory activity against MRSA strain USA400 (FIG. 7).
# MRSA strain USA400 [2] = assay: In vivo efficacy of F11, intraperitoneal MRSA challenge; design: species or system C57BL/6 mice; conditions: 100 μg single bolus i.v. 1 h after 2×10^8 MRSA i.p.
# Procedure: Mice were challenged with an intraperitoneal injection of 2×10^8 MRSA strain USA400, and 1 hour later the mice were treated with 100 μg wild-type LST, F11 or PBS. The percent survival is shown.
# The in vivo efficacy of the F11 variant was further analyzed in C57BL/6 mice. Mice were challenged with an intraperitoneal injection of 2×10^8 MRSA strain USA400, and 1 hour later the mice were treated with 100 μg wild-type LST, F11 or PBS, administered as a single bolus intravenous injection. The survival rate for both protein treatments was 1/3. The 100 μg dosage was selected because wild-type LST is known to be only partially efficacious at this dose.
# [3] = Immunogenicity of F13, antibody titers by ELISA (CFA); format: in vivo, DR4 HLA transgenic mice; conditions: 100 μg s.c. in CFA, fourteen days
# Procedure: (§1) The immunogenicity of the F13 variant was compared to wild-type LST in DR4 HLA transgenic mice, i.e., mice bearing partially humanized immune systems. 100 μg of wild-type LST or variant F13 were mixed with complete Freund's adjuvant and injected subcutaneously into DR4 mice. Fourteen days later, antibody titers were measured by ELISA. Variant F13 yielded more than 200-fold lower antibody titers compared to wild-type LST. To assess the impact of antibody titers on antibacterial efficacy, the mice were challenged with an intraperitoneal injection of 2×10^8 MRSA strain USA400, and 1 hour later the mice were treated with 500 μg wild-type LST, variant F13, or PBS, administered as a single bolus intravenous injection. Both mice receiving PBS sham treatments died as did both mice treated with wild-type LST. In contrast, both mice treated with variant F13 survived. Thus, the reduced immunogenicity of F13 conferred enhanced therapeutic efficacy in vivo.
# MRSA strain USA400 [4] = assay: Efficacy of F13 in immunized mice, MRSA challenge; format: in vivo, DR4 HLA transgenic mice; conditions: 500 μg i.v. 1 h after 2×10^8 MRSA i.p.
# Procedure: as §1
# S. aureus 6445 = assay: MIC assay; format: cell-based, Staphylococcus aureus; conditions: biological duplicates
# MRSA strain 3425-3 = assay: MIC assay; format: cell-based, Staphylococcus aureus; conditions: biological duplicates
# Procedure: (§2) The MICs of wild-type lysostaphin and its variants were determined by adding 2-fold serial dilutions of enzymes into wells of a polypropylene 96-well plate (Costar 3879) containing ˜40,000 S. aureus SA113 (or S. aureus 6445, 3425-1, 3425-3) cells in Muller Hinton broth (BD) supplemented with 2% NaCl and 0.1% bovine serum albumin, yielding a total volume of 100 μl. Plates were grown overnight at 37° C. with shaking at 900 rpm on an Orbit P4 orbital shaker (Labnet; Edison, N.J.). […] The assay was performed in triplicate for each enzyme.
# S. aureus SA113 = assay: MIC assay; format: cell-based, Staphylococcus aureus
# Procedure: as §2
# S. aureus 3425-1 = assay: MIC assay; format: cell-based, Staphylococcus aureus; conditions: biological duplicates
# Procedure: as §2
# pooled splenocytes [5] = assay: Transgenic DR4 murine immunogenicity study (memory response, splenocyte proliferation); format: in vivo; conditions: wild-type LST primed mice, 100 μg rechallenge
# Procedure: Twelve female 6-8 week old DR4 transgenic mice (Abb Knockout/Transgenic HLA-DR4; B6.129S2-H2-Ab1tm1GruTg(HLA-DRA/H2-Ea,HLA-DRB1*0401/H2-Eb)1Kito; Taconic Farms, Germantown, N.Y.) were divided into four groups of three each and immunized with 50 μl subcutaneous injections of wild-type LST using one of the following four schemes: (i) initial immunization with 100 μg enzyme in CFA, followed by 100 μg boosts in incomplete Freund's adjuvant (IFA) on days 14 and 28; (ii) initial immunization with 20 μg enzyme in CFA, followed by 20 μg boosts in IFA on days 14 and 28; (iii) initial immunization with 100 μg enzyme in PBS buffer, followed by 100 μg boosts in PBS buffer on days 7, 14, 21 and 28; (iv) initial immunization with 20 μg enzyme in PBS buffer, followed by 20 μg boosts in PBS buffer on days 7, 14, 21 and 28. Serum IgG antibody titers against wild-type LST were measured on days 13, 20, 27, 34, and 62. […] Mice were housed without further manipulation until week 23 of the study, at which time serum IgG antibody titers were again measured and mice were divided into two experimental arms having equivalent average antibody titers. Note that during the week 9 to week 23 recovery period, two mice (the lowest titer 100 μg no adjuvant and one of the high titer 100 μg adjuvant) began suffering hair loss, weight loss, and reduced mobility and were sacrificed as per the IACUC approved protocol. […]
# pooled splenocytes [6] = conditions: mouse, in vivo
# Text: HUMI mice were constructed by surgical transplantation of human bone marrow, liver, and thymus tissues into NOD/SCID/γc^−/− mice (Dartmouth Transgenics & Genetic Constructs Shared Resource) as described (Brainard, et al. (2009) J. Virol. 83:7305-21). All animals were humanized from the same human donor. Mice used experimentally had human lymphocytes as a minimum of 25% of their total peripheral blood leukocytes. Fourteen weeks post-engraftment, 12 female HUMI mice were divided into 3 groups of 4 each and immunized with a single 50 μl subcutaneous injection of 100 μg wild-type LST, 100 μg variant Flex 5, or 100 μg variant Flex 9 in complete Freund's adjuvant (CFA). Two weeks following the immunization, mice were sacrificed and splenocytes were harvested and pooled for each group. Pooled splenocytes (5×10^5/well) were plated in triplicate into 96-well plates with medium containing 5% fetal calf serum, 1-glutamine, antibiotics, and a final concentration of 10 μg/ml LST or variants (or 1% DMSO as a control). […]
# In vivo immunogenicity was evaluated using NOD/SCID/γc^−/− mice that had been surgically humanized with human immune cells, liver tissue, and thymus tissue (HUMI mice). […] Cell proliferation was measured by tritiated thymidine uptake at 72 hours.
# S. aureus cells = assay: Lytic assay using purified protein (SYTOX kinetic assay); format: cell-based, Staphylococcus aureus
# Procedure: S. aureus cells were grown either to mid-log or to saturation in tryptic soy broth (TSB) at 37° C. with shaking. The cells were harvested by centrifugation and washed once in phosphate buffered saline (PBS: 2.7 mM KCl, 1.5 mM KH2PO4, 8.9 mM Na2HPO4, 136.9 mM NaCl, pH 7.4). The assay was performed in 96-well, black, clear bottom plates from Greiner Bio-One (Monroe, N.C.). The final (250 μl) reaction was composed of 10 μl of P. pastoris culture supernatant, S. aureus cells at OD600=1.5, and 5 μM SYTOX Green (Thermo Fisher Scientific; Waltham, Mass.), all in PBS. Data were collected using SPECTRAMAX GEMINI Fluorescence Microplate Reader (Molecular Devices; Sunnyvale, Calif.) using an excitation/emission of 504/523 nm, and rates were determined from the slope of the steepest linear portion of the trace. Each assay was performed with 500 ng of commercially-sourced lysostaphin (ssLys) as an internal control.
# The activity of purified lysostaphin variants was examined using the SYTOX kinetic assay as previously described in Chapter 2, Section 3.2.6. 200 ng of purified enzyme (instead of culture supernatant) was used in each reaction.
# [7] = Thermostability by differential scanning fluorimetry; format: physicochemical
# Procedure: The relative thermostability of the lysostaphin variants was determined by differential scanning fluorimetry, as previously described (Niesen, et al. (2007) Nat. Protocols 2:2212-2221). Proteins and SYPRO Orange were diluted in PBS (final concentrations of 100 μg/ml and 5× in 20 μl reaction volume, respectively), and fluorescence was quantified at 1-degree increments from 25 to 94° C. using an Applied Biosystems ABI 7500 fast real-time PCR system. The reactions were performed using PCR Plates for Fast Thermocyclers (VWR; Radnor, Pa.). Fluorescence was quantified using the preset TAMRA parameters. Melting temperatures were determined by data analysis with the ‘DSF Analysis v3.0.xlsx’ EXCEL sheet and GraphPad Prism v.6.02 software.
Molecule,MIC activity relative to wild-type LST (MRSA strain USA400 [1]) [%],survival rate (MRSA strain USA400 [2]),fold lower antibody titers compared to wild-type LST [3],retained original MIC activity after heating (MRSA strain USA400 [1]; 50° C. for 1 hour prior to assay) [%],survival (MRSA strain USA400 [4]),MIC Strain 6445 (S. aureus 6445) [µg/mL],MIC Strain 3425-3 (MRSA strain 3425-3) [µg/mL],"MIC (S. aureus SA113; S. aureus SA113, purified enzyme) [µg/mL]",MIC Strain SA113 (S. aureus SA113; biological duplicates) [µg/mL],MIC Strain 3425-1 (S. aureus 3425-1) [µg/mL],proliferation of pooled splenocytes (pooled splenocytes [5]),reduced proliferative response relative to wild-type group (pooled splenocytes [6]) [%],% Wild-Type Activity (S. aureus cells; 200 ng purified enzyme) [%],% WT Lytic Rate (S. aureus cells; biological duplicates) [%],"Tm ([7]; SYPRO Orange, PBS) [°C]",Tm ([7]; biological duplicates) [°C]
F11: variant combining cell wall binding domain mutations with Flex 9 (or derivative) catalytic domain (Table 22) (protein) AATHEHSAQWLGNYKKGYGYGPYPLGINGGMHYGVDFFMNEGTPVKAISSGKIVEAGWSNYGGGNQIGLIENDGVHRQWYMHMSKYNVKVGDYVEAGQQIGWSGSTGYSTAPHLHFQRMVGDFGNPTAQDPMPFLKSAGYGKAGGTVTPTPNTGWKTNKHGTLYKSESGSFTPNTDIITRTTGPFTSMPQSGVLKAGQTIHYDEVMKQDGHVWVGYTGNSGQRIYLPVRTWQKSTNTLGVLWGTIK,12.5,1/3,–,–,–,–,–,–,–,–,–,–,–,–,–,–
F13: variant combining cell wall binding domain mutations with Flex 9 (or derivative) catalytic domain (Table 22) (protein) AATHEHSAQWLGNYKKGYGYGPYPLGINGGMHYGVDFFMNEGTPVKAISSGKIVEAGWSNYGGGNQIGLIENDGVHRQWYMHMSKYNVKVGDYVEAGQQIGWSGSTGYSTAPHLHFQRMVGDFGNPTAQDPMPFLKSAGYGKAGGTVTPTPNTGWKTNKHGTLYKNESGSFTPNTDIITRTTGPFTSMPQSGVLKAGQTIHYDEVMKQDGHVWVGYTGNSGQRIYLPVRTWQKSTDTLGVLWGTIK,12.5,–,more than 200 fold,25,survived,–,–,–,–,–,–,–,–,–,–,–
"Flex 5: lysostaphin variant K46H, I99Q, N121G, S122D (protein, UniProt P10547 248-493, looked up, variant K46H I99Q N121G S122D) Lysostaphin: AATHEHSAQWLNNYKKGYGYGPYPLGINGGMHYGVDFFMNIGTPVHAISSGKIVEAGWSNYGGGNQIGLIENDGVHRQWYMHLSKYNVKVGDYVKAGQQIGWSGSTGYSTAPHLHFQRMVGDFSNSTAQDPMPFLKSAGYGKAGGTVTPTPNTGWKTNKYGTLYKSESASFTPNTDIITRTTGPFRSMPQSGVLKAGQTIHYDEVMKQDGHVWVGYTGNSGQRIYLPVRTWNKSTNTLGVLWGTIK",–,–,–,–,–,0.06,0.05,0.1042,0.02,0.11,at or below background levels,50,61,70 ± 30,55.7,55.8
